# Assay results published in US20250163162A1.
# T1: IL10Rα/IL2Rγ receptor (human) (UniProt Q13651)
# T1 sequence (looked up) 1: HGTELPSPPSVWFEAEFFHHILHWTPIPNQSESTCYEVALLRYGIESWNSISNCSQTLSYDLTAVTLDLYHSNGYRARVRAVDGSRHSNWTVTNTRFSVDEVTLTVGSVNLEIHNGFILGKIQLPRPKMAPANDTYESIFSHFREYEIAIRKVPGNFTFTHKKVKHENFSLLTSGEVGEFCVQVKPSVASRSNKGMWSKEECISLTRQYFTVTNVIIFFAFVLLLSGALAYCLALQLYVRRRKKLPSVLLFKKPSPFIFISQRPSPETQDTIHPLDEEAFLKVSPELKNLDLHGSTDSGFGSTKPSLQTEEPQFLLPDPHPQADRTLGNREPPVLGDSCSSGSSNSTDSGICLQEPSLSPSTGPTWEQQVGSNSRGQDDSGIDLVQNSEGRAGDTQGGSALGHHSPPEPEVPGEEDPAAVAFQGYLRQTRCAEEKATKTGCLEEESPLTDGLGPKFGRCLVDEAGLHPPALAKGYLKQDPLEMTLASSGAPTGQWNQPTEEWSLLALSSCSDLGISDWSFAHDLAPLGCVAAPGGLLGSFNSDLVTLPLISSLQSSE
# T1 sequence (looked up) 2: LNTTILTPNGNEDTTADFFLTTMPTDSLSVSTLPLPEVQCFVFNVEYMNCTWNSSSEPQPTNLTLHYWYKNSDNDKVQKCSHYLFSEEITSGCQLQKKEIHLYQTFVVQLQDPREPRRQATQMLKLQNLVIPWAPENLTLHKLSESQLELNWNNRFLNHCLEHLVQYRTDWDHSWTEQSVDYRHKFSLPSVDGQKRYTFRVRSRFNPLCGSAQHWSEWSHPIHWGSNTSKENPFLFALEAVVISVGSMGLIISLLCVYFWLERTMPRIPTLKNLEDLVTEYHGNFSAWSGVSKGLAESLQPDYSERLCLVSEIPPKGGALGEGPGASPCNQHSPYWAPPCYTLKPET
# Target: T1, IL10Rα/IL2Rγ receptor (human)
# Assay: cell-based or functional assay
binder,measurement,value
"hIL10Ra_VHH14 - hIL2Rg_VHH19, linker GGGS, tag Fc (bispecific antibody, not shown: a dimerising Fc or GST) QVQLQESGGGSVQAGGSLRLSCGASGYTYSSYCMGWFRQVPGKEREGVAVIDSDGSTSYADSVKGRFTISKDNGKNTLYLQMNSLKPEDTAMYYCAADLGHYRPPCGVLYLGMDYWGKGTQVTVSSGGGSQVQLQESGGGSVQAGGSLRLSCTASGFTFDDREMNWYRQAPGNECELVSTISSDGSTYYADSVKGRFTISQDNAKNTVYLQMDSVKPEDTAVYYCAADFMIAIQAPGAGCWGQGTQVTVSS","Granzyme A secretion, CD8 T cells, at 0 µM",25200 pg/mL
same,"Granzyme A secretion, CD8 T cells, at 0.0001 µM",22100 pg/mL
same,"Granzyme A secretion, CD8 T cells, at 0.001 µM",25900 pg/mL
same,"Granzyme A secretion, CD8 T cells, at 0.01 µM",27600 pg/mL
same,"Granzyme A secretion, CD8 T cells, at 0.1 µM",30000 pg/mL
same,"Granzyme A secretion, CD8 T cells, at 1 µM",29800 pg/mL
same,"Granzyme A secretion, CD8 T cells, at 10 µM",28500 pg/mL
same,"Granzyme A secretion, CD8 T cells, at 100 µM",25700 pg/mL
same,"Granzyme B secretion, CD8 T cells, at 0 µM",77700 pg/mL
same,"Granzyme B secretion, CD8 T cells, at 0.0001 µM",54500 pg/mL
same,"Granzyme B secretion, CD8 T cells, at 0.001 µM",60900 pg/mL
same,"Granzyme B secretion, CD8 T cells, at 0.01 µM",79000 pg/mL
same,"Granzyme B secretion, CD8 T cells, at 0.1 µM",108000 pg/mL
same,"Granzyme B secretion, CD8 T cells, at 1 µM",134000 pg/mL
same,"Granzyme B secretion, CD8 T cells, at 10 µM",151000 pg/mL
same,"Granzyme B secretion, CD8 T cells, at 100 µM",93300 pg/mL
same,"IFNγ secretion, CD8 T cells, at 0 µM",122000 pg/mL
same,"IFNγ secretion, CD8 T cells, at 0.0001 µM",104000 pg/mL
same,"IFNγ secretion, CD8 T cells, at 0.001 µM",113000 pg/mL
same,"IFNγ secretion, CD8 T cells, at 0.01 µM",131000 pg/mL
same,"IFNγ secretion, CD8 T cells, at 0.1 µM",144000 pg/mL
same,"IFNγ secretion, CD8 T cells, at 1 µM",166000 pg/mL
same,"IFNγ secretion, CD8 T cells, at 10 µM",157000 pg/mL
same,"IFNγ secretion, CD8 T cells, at 100 µM",148000 pg/mL
same,"IL-1β secretion, LPS treated monocytes, at 0 µM",6240 pg/mL
same,"IL-1β secretion, LPS treated monocytes, at 0 µM (LPS only)",6880 pg/mL
same,"IL-1β secretion, LPS treated monocytes, at 0.0001 µM",6290 pg/mL
same,"IL-1β secretion, LPS treated monocytes, at 0.001 µM",5570 pg/mL
same,"IL-1β secretion, LPS treated monocytes, at 0.01 µM",5260 pg/mL
same,"IL-1β secretion, LPS treated monocytes, at 0.1 µM",4020 pg/mL
same,"IL-1β secretion, LPS treated monocytes, at 1 µM",3660 pg/mL
same,"IL-1β secretion, LPS treated monocytes, at 10 µM",4140 pg/mL
same,"IL-1β secretion, LPS treated monocytes, at 100 µM",6480 pg/mL
same,"IL-9 secretion, CD8 T cells, at 0 µM",1350 pg/mL
same,"IL-9 secretion, CD8 T cells, at 0.0001 µM",1060 pg/mL
same,"IL-9 secretion, CD8 T cells, at 0.001 µM",1120 pg/mL
same,"IL-9 secretion, CD8 T cells, at 0.01 µM",1160 pg/mL
same,"IL-9 secretion, CD8 T cells, at 0.1 µM",1420 pg/mL
same,"IL-9 secretion, CD8 T cells, at 1 µM",1780 pg/mL
same,"IL-9 secretion, CD8 T cells, at 10 µM",2150 pg/mL
same,"IL-9 secretion, CD8 T cells, at 100 µM",1930 pg/mL
"hIL10Ra_VHH14 - hIL2Rg_VHH19, linker GGGS, tag his (bispecific antibody, not shown: small tags and cut ends) QVQLQESGGGSVQAGGSLRLSCGASGYTYSSYCMGWFRQVPGKEREGVAVIDSDGSTSYADSVKGRFTISKDNGKNTLYLQMNSLKPEDTAMYYCAADLGHYRPPCGVLYLGMDYWGKGTQVTVSSGGGSQVQLQESGGGSVQAGGSLRLSCTASGFTFDDREMNWYRQAPGNECELVSTISSDGSTYYADSVKGRFTISQDNAKNTVYLQMDSVKPEDTAVYYCAADFMIAIQAPGAGCWGQGTQVTVSS","Granzyme A secretion, CD8 T cells, at 0 µM",25200 pg/mL
same,"Granzyme A secretion, CD8 T cells, at 0.0001 µM",19700 pg/mL
same,"Granzyme A secretion, CD8 T cells, at 0.001 µM",20900 pg/mL
same,"Granzyme A secretion, CD8 T cells, at 0.01 µM",22300 pg/mL
same,"Granzyme A secretion, CD8 T cells, at 0.1 µM",23700 pg/mL
same,"Granzyme A secretion, CD8 T cells, at 1 µM",26400 pg/mL
same,"Granzyme A secretion, CD8 T cells, at 10 µM",26500 pg/mL
same,"Granzyme A secretion, CD8 T cells, at 100 µM",27300 pg/mL
same,"Granzyme B secretion, CD8 T cells, at 0 µM",77700 pg/mL
same,"Granzyme B secretion, CD8 T cells, at 0.0001 µM",49300 pg/mL
same,"Granzyme B secretion, CD8 T cells, at 0.001 µM",45600 pg/mL
same,"Granzyme B secretion, CD8 T cells, at 0.01 µM",48100 pg/mL
same,"Granzyme B secretion, CD8 T cells, at 0.1 µM",55300 pg/mL
same,"Granzyme B secretion, CD8 T cells, at 1 µM",72700 pg/mL
same,"Granzyme B secretion, CD8 T cells, at 10 µM",84700 pg/mL
same,"Granzyme B secretion, CD8 T cells, at 100 µM",94600 pg/mL
same,"IFNγ secretion, CD8 T cells, at 0 µM",122000 pg/mL
same,"IFNγ secretion, CD8 T cells, at 0.0001 µM",96800 pg/mL
same,"IFNγ secretion, CD8 T cells, at 0.001 µM",99600 pg/mL
same,"IFNγ secretion, CD8 T cells, at 0.01 µM",107000 pg/mL
same,"IFNγ secretion, CD8 T cells, at 0.1 µM",114000 pg/mL
same,"IFNγ secretion, CD8 T cells, at 1 µM",130000 pg/mL
same,"IFNγ secretion, CD8 T cells, at 10 µM",134000 pg/mL
same,"IFNγ secretion, CD8 T cells, at 100 µM",134000 pg/mL
same,"IL-1β secretion, LPS treated monocytes, at 0 µM",6240 pg/mL
same,"IL-1β secretion, LPS treated monocytes, at 0 µM (LPS only)",6880 pg/mL
same,"IL-1β secretion, LPS treated monocytes, at 0.0001 µM",6420 pg/mL
same,"IL-1β secretion, LPS treated monocytes, at 0.001 µM",6640 pg/mL
same,"IL-1β secretion, LPS treated monocytes, at 0.01 µM",5760 pg/mL
same,"IL-1β secretion, LPS treated monocytes, at 0.1 µM",6120 pg/mL
same,"IL-1β secretion, LPS treated monocytes, at 1 µM",5350 pg/mL
same,"IL-1β secretion, LPS treated monocytes, at 10 µM",5950 pg/mL
same,"IL-1β secretion, LPS treated monocytes, at 100 µM",6580 pg/mL
same,"IL-9 secretion, CD8 T cells, at 0 µM",1350 pg/mL
same,"IL-9 secretion, CD8 T cells, at 0.0001 µM",941 pg/mL
same,"IL-9 secretion, CD8 T cells, at 0.001 µM",1000 pg/mL
same,"IL-9 secretion, CD8 T cells, at 0.01 µM",1120 pg/mL
same,"IL-9 secretion, CD8 T cells, at 0.1 µM",1340 pg/mL
same,"IL-9 secretion, CD8 T cells, at 1 µM",1400 pg/mL
same,"IL-9 secretion, CD8 T cells, at 10 µM",1680 pg/mL
same,"IL-9 secretion, CD8 T cells, at 100 µM",1710 pg/mL
